First the molecules themselves.
B1: TPR t1 (parent)
chain: GACCAAUCUGCCCUCAGAGCUCGAGAACAUCUUCGGAUGCAGAGGAGGCAGGCUUCGGUGGCGCGAUAGCGCCAACGUCCUCAACCUCCAAUGCAUCCCACCACAUGAUGAUGCCUGAAGAGCCUUGGUUUUUUG

The variants in this series derive from B1. Nature of the series: polymerase ribozyme fitness, log enrichment relative to wild type (log ratio); higher = more active; in vitro selection for triplet polymerase activity. A digest of the protocol: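 PCR was used to build mutant libraries for each subunit of a heterodimeric triplet polymerase ribozyme, which were then transcribed. A single in vitro selection round, in triplicate, used a frozen incubation at −7 °C and recovered extended constructs by gel excision, streptavidin beads and RT-PCR. Fitness is the logarithm of genotype enrichment relative to wild-type enrichment, averaged over replicates with inverse-variance weights. The logarithm is base 2, and after Illumina sequencing only genotypes with ≥10 input reads and ≥1 read per output were kept.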
Regarding GACCAAUCUGCCCUCAGAGCUCGAGAACAUCUUCGGAUGCAGAGGAGGCAGGAUUCGGUGGCACGAUAGCGCCAACGUCCUCAACCUCCAAUGCAUCCCACCACAUGAUGAUGCCUGAAGAGCUUUGGCUUUUGG, the “polymerase ribozyme fitness (log ratio)” value worked out at 1.57.
On to GACCAAUCUGCCCUCAGAGCUCGAGAACAUCUUCGGAUGCAGAGGAGGCAGGAUUCGGUAGCGCGAUAGCGCCAACGUCCUCAACCUCCAAGGCAUCCCACCACAUGAUGAUGCCUGAAGAGCCUUGGUUUUUUG, for which the “polymerase ribozyme fitness (log ratio)” value is -2.9.
Next, GACCAAUCUGCCCUCAGAGCUCGAGAACAUCUUCGGAUGCAGAGGAGGCAGGGUUCGGUGGUGCGAUAGCGACAACGUCCUCAACCUCCAAUGCAUCCCACCACAUGAUGAUGCCUGAAGAGCUUUGGUUUUUUG: 0.806; GACCAAUCUGCCCUCAGAGCUCGAGAACAUCUUCGGAUGCAGAGGAGGCAGGGUUCGGUGGCGCGAUAGUGCCAACGUCCUCAACCUCCAAUGCAUCCCACCACAUGAUGAUGCCUGAAGAGCCCUGGUUUUUUG: -3.18.
Next, GACCAAUCUGCCCUCAGAGCUCGAGAACAUCUUCGGAUGCAGAGGAGGCAGGAUUCGGUGGCGCGAUAGCGCCAACGUCCUCAACCUCCAAUGCAUCCCACCACAUGAUGAUGCCGGAAGAGCCUUGGUUUUUUG: -1.78.
For GACCAAUCUGCCCUCAGAGCUCGAGAACAUCUUCGGAUGCAGAGGAGGCAGGGUUCGGUGGCGCGAUAGAGCCAACGUCCUCAACCUCCAAUGCAUCCCACCACAUGAUGAUGCCUAAAGAGCCUUGGUUUUUUG the value was -3.42.
On to GACCAAUCUGCCCUCAGAGCUCGAGAACAUCUUCGGAUGCAGAGGAGGCAGGAUUCGGUGGCGCGAUAGCGCCAACGUCCUCAACCUCCAAGGCUUCCCACCACAUGAUGAUGCCUGAAGAGCCUUGGUUUUUUG, for which the “polymerase ribozyme fitness (log ratio)” value is -2.44.
For GACCAAUCUGCCCUCAGAGCUCGAGAACAUCUUCGGAUGCAGAGGAGGCAGGGUUCGGUGGCGCGAUAGCGCAAACGUCCUCAACCUCCAAUGCAUCCCACCACCUGAUGAUGCCUGAAGAGCCUUGGUUUUUUG, the “polymerase ribozyme fitness (log ratio)” value was -3.2.
Regarding GACCAAUCUGCCCUCAGAGCUCGAGAACAUCUUCGGAUGCAGAGGAGGCAGGGUUCGGUGGCGCGAUGGCGCCAACGUCCUCAACCGCCAAUGCAUCCCACCACAUGAUGAUGCCUGAAGAGCCUUGGUUUUUUG, the “polymerase ribozyme fitness (log ratio)” value was -4.16.
On to GACCAAUCUGCCCUCAGAGCUCGAGAACAUCUUCGGAUGCAGAGGAGGCAGGGUUAGGUGGCGCGAUAGCGCCAACGUCCUCAACCUCCAAUGCAUCCCACCACAUGAUGAUGCCUCAAGAGCCUUGGUUUUUUG, for which the “polymerase ribozyme fitness (log ratio)” value was -4.49.
For GACCAAUCUGCCCUCAGAGCUCGAGAACAUCUUCGGAUGCAGAGGAGGCAGGGUUCGGUGGCGCGAUAGCGGCAACGUCCUCAACCUCCAAUGCAUCCCACCACAUGAUGAUGCCUCAAGAGCCUUGGUUUUUUG the value was -4.69.
Turning to GACCAAUCUGCCCUCAGAGCUCGAGAACAUCUUCGGAUGCAGAGGAGGCAGGAUACGGUGGCGCGAUAGCCCCAACGUCCUCAACCUUUAAUGCAUCCCACCACAUGAUGAUGCCUGAAGAGCCUUGGUUUUUUG, the “polymerase ribozyme fitness (log ratio)” value was -1.28.
For GACCAAUCUGCCCUCAGAGCUCGAGAACAUCUUCGGAUGCAGAGGAGGCAGGAAUCGGUGGCGCGAUAGCGCCAACGUCAUCAACCUCCAAUGCAUCCCACCACAUGAUGAUGACUGAAGAGCGAUGGUUUUUUG the value was -6.7; for GACCAAUCUGCCCUCAGAGCUCGAGAACAUCUUCGGAUGCAGAGGAGGCAGGGUUCGGUGGCGCGAUAGGGCCAACGUCCUCAACCUCCAAUGCAUCCCACCACAUGAUGAUGCCUGAAGAGCCUUGGUUUUUUG, -2.85.
Next, GACCAAUCUGCCCUCAGAGCUCGAGAACAUCUUCGGAUGCAGAGGAGGCAGGAUUCGGUGGCGCGAUAGCGCCAACGUCCUCAACCUCCAAUGCAUCCCACCACAUGAUGAUGCCUGAAGAGCCUUGGUUUUGUG: -0.187.
Turning to GACCAAUCUGCCCUCAGAGCUCGAGAACAUCUUCGGAUGCAGAGGAGGCAGGAUUCGGUGGCGCGAUAGCCCCAACGUCCUCAACAUCCAAUGCAUCCCACCACAUGAUGAUGCCUGAAGAGCAUUGGUUUUUUG, the “polymerase ribozyme fitness (log ratio)” value is -2.54.
Turning to GACCAAUCUGCCCUCAGAGCUCGAGAACAUCUUCGGAUGCAGAGGAGGCAGGGUUCGGUGGCGCGAUAGCGCCAACGUCCUCAACCUCCAAUGCAUCCCAACACAUGAUGAUGCCUGAAGAGCCUUGGUUUUUUG, the “polymerase ribozyme fitness (log ratio)” value is -1.03.
With GACCAAUCUGCCCUCAGAGCUCGAGAACAUCUUCGGAUGCAGAGGAGGCAGGGUUCGGUGGCGCGAUAGCGCUAACGUCCUCAACCUCCAAUGCAUCCCACCACAUGAUGAUGCCUGAAGAGCCUUGGUUUUUUG, the “polymerase ribozyme fitness (log ratio)” value is -0.493.
As to GACCAAUCUGCCCUCAGAGCUCGAGAACAUCUUCGGAUGCAGAGGAGGCAGGAUUCGGUGGCGCGAUAGCGCCAACGUCCUCAACCACCGAUGCAUGCCACCACAUGAUGAAGCCUGAAGAGCCUUGGUUUUUUG, the “polymerase ribozyme fitness (log ratio)” value is -3.25.
Take GACCAAUCUGCCCUCAGAGCUCGAGAACAUCUUCGGAUGCAGAGGAGGCAGGAUUCGGUGGCGCGAUAUCGCCAACGUCCUCAACCUCCAAUGCAUCCCACCACAUGAUGAUGCCUGAACAGCCUUGGUUUUUUG: the “polymerase ribozyme fitness (log ratio)” value was 1.96.
With GACCAAUCUGCCCUCAGAGCUCGAGAACAUCUUCGGAUGCAGAGGAGGCAGGAUUCGGUGGCGCGAUAGCGCCAACGUCCUCAACCCCCAAUGCAUCCCACCACAUGAUGAUGCCUGAAGAGCCUUGGUUUUUUG, the “polymerase ribozyme fitness (log ratio)” value was 0.506.
As for GACCAAUCUGCCCUCAGAGCUCGAGAACAUCUUCGGAUGCAGAGGAGGCAGGAUUCGGUCGCGCGAUAGCGCCAACGUCCUCAACCUCCAAUGCAUCCCACCCCAUGAUGAUGCCCGAACAGCCUUGGUUUUUUG, the “polymerase ribozyme fitness (log ratio)” value was -7.17.
For GACCAAUCUGCCCUCAGAGCUCGAGAACAUCUUCGGAUGCAGAGGAGGCAGGGUUCGGUGGCGCGAUAGCGCCAACGUCCUCAACCUCCAAUGCAUCCCACCACAUGAUGAUGCCUGAUGAGACUUGGUUUUUUG the value was -1.16; for GACCAAUCUGCCCUCAGAGCUCGAGAACAUCUUCGGAUGCAGAGGAGGCAGGGUUCGGUGGCGCGAUAGCGCCAACGUCCUCAACCUCCAAUGAAUCCCACCACAUGAUGAUGCGUGAAGAGCCUUGCUUUUUUG, -4.56.
Take GACCAAUCUGCCCUCAGAGCUCGAGAACAUCUUCGGAUGCAGAGGAGGCAGGAUUCGGUGGCGCGAUACCGCCAACUUCCUCAACCUCCAAUGCAACCCACCACAUGAUGAUGCCUAAAGAGCCUUGGUUUUUUG: the “polymerase ribozyme fitness (log ratio)” value is -5.87.
Next, GACCAAUCUGCCCUCAGAGCUCGAGAACAUCUUCGGAUGCAGAGGAGGCAGGAUUCGGUGGCGCGAUAGCGCCAACGUCCUCAACCUCCAAUGCAUCCCACCACAUGAUGAUGCCUGAAGAUACUUGGUUUUUUG: 0.198.
Turning to GACCAAUCUGCCCUCAGAGCUCGAGAACAUCUUCGGAUGCAGAGGAGGCAGGGUUCGGUGGCGUGAUAGCGCCAACGUCCUCAACCUCCAAUGCAUCCCACCACAUGAUGAUGCCUGAAAAGCCUUGGUUUUUUG, the “polymerase ribozyme fitness (log ratio)” value came out at 1.12.
As to GACCAAUCUGCCCUCAGAGCUCGAGAACAUCUUCGGAUGCAGAGGAGGCAGGGUUCGGUGGCGCGAUAGCGGCAACGUCCUCAACCUACAAUGCAUCCCACCACAUGAUGAUGCCUGAAGAGCCUUGGUUUUUUG, the “polymerase ribozyme fitness (log ratio)” value is -0.997.
For the variant GACCAAUCUGCCCUCAGAGCUCGAGAACAUCUUCGGAUGCAGAGGAGGCAGGGUUCGGUGGCGCGAUAGCGCCAACGUCCUCAACCUCCAAUGCAUCCCACCACAUGAUGAUGCCUGAUGAGCCUUCGUUUUUUG, the “polymerase ribozyme fitness (log ratio)” value was -1.2.
In the case of GACCAAUCUGCCCUCAGAGCUCGAGAACAUCUUCGGAUGCAGAGGAGGCAGGAUUCGGUGGCGCGAUAUCGCCAACGGCCUAAACCUCCAAUGCAUCCCACCACAUGAUGAUGCCUGAAGAGCCUUGGUUUUUUG, the “polymerase ribozyme fitness (log ratio)” value is -0.279.
Next, GACCAAUCUGCCCUCAGAGCUCGAGAACAUCUUCGGAUGCAGAGGAGGCAGGGUUCGGUGGCGCGAUAGCGCCAACGUCCUCAACCUCUAAUGCAUCCCACCACAUGAUGAUGCUUGAAGAGCCUUGGUUUUUUG: -2.67.
For GACCAAUCUGCCCUCAGAGCUCGAGAACAUCUUCGGAUGCAGAGGAGGCAGGGUUCGGUGGCGCGAUAGCGCCAACGUCCUCAACCUCCAAUGCAUACCACCACAUGAUGAUACCUGAAGAGCCUUGGUUUUUUG, the “polymerase ribozyme fitness (log ratio)” value is -4.75.
For GACCAAUCUGCCCUCAGAGCUCGAGAACAUCUUCGGAUGCAGAGGAGGCAGGGUUCGGUGGCGCGAUAGCGUCAACGUCCUCAACCUCCAAUGCAUCCCACCAAAUGAUGAUGCCUGAAGAGCCUUGGUUUUUUG, the “polymerase ribozyme fitness (log ratio)” value was -1.89.
Regarding GACCAAUCUGCCCUCAGAGCUCGAGAACAUCUUCGGAUGCAGAGGAGGCAGGAUUCGGUGGCGCGAUAGCGCCAACGUCCGCAACCUCCGAUGCAUCCCACCACAUGAUGAUGCCUGAAGAGCCUUGGUUUUUUG, the “polymerase ribozyme fitness (log ratio)” value came out at 0.427.
GACCAAUCUGCCCUCAGAGCUCGAGAACAUCUUCGGAUGCAGAGGAGGCAGGGUUCGGUGGCGCGAUAGCGCCGACGUCCUCAACCUCCAAUGCAUCCCACCACAUGAUGAUGCUUGAAGAGCCUUGGUUUUUUG: the “polymerase ribozyme fitness (log ratio)” value was -1.15.
As for GACCAAUCUGCCCUCAGAGCUCGAGAACAUCUUCGGAUGCAGAGGAGGCAGGAUUCGGUGGCUCGAUAGCGCCAACGUCCUCAACCUCCAAUGCAUCCCACCACAUGAUGAUGCCUGAAGAGCCUUGGUUUUUUG, the “polymerase ribozyme fitness (log ratio)” value is -1.77.
For GACCAAUCUGCCCUCAGAGCUCGAGAACAUCUUCGGAUGCAGAGGAGGCAGGAUUCGGUGGCACGAUAGCGCCAACGUCCUCAACCUCCAAUGCAUCCCACCACAUGAUGAUGCCUGAAGAGCCUUGGUUUUUUG the value was -0.638; for GACCAAUCUGCCCUCAGAGCUCGAGAACAUCUUCGGAUGCAGAGGAGGCAGGAUUCGGUGGCGCGAUAGCGCCAACGCCCUCAACCUCCAAUGCAUCCCACCACAUGAUGAUUCCUGAAGAGCCUUGGUUUUUUG, -3.16; for GACCAAUCUGCCCUCAGAGCUCGAGAACAUCUUCGGAUGCAGAGGAGGCAGGAUUCGGUGACGCGAUAGCGCCAACGGACGCAAACUCCAAUGCAUCCCACCACAUGAUGAUGCCUGAAGAGCCUUGGUUUUUUG, -4.32.
Consider GACCAAUCUGCCCUCAGAGCUCGAGAACAUCUUCGGAUGCAGAGGAGGCAGGAUUCGGUGCCGCGAUAGCGCCAACGCCCUCAAUCUCCAAUACAUCCCACCACAUGAUGAUGCCUGAAGAGCCUUGGUUUUUUG, for which the “polymerase ribozyme fitness (log ratio)” value was -0.976.
Next, GACCAAUCUGCCCUCAGAGCUCGAGAACAUCUUCGGAUGCAGAGGAGGCAGGAUUCGGUGGCGCGAUAGCGCCAACGCCCUCAACCUCCAAUGCAUCCCACCAAAUGAUGAUGCCUGAAGAGCCUUGGUUUUUUG: -1.25; GACCAAUCUGCCCUCAGAGCUCGAGAACAUCUUCGGAUGCAGAGGAGGCAGGAUUCGGUGGCGCGAUAGCGCCAACGUCCUCAACCUCCAAUGCAUCCCACCACAUGAUUAUGCCUGAAGAGCCUUGGUUUUUUG: -1.02.
